According to a protein production outcome set (Wang et al. 2014):

Assay: label from the status in PepcDB records

Row | Sequence | protein production
1 | MKLNVKMLSVTLGLFTSHAFAHTVYENARIYTVNDQQPTASVLVVEQGKIIYVGGNDGAKQFKATAAELFDLEGKTVLPGFIESHAHPATVAVMQAGDFVYVDGAASLTQILNQLKDYLAAHPKANYLLAQGFNVASLGLPQGALPTAADLDTVSTSIPIVVYDSGMHAGWANSAALKIAHVDANTPDPISGKHYFERDNKGNPTGFMHESAMHNVVDAQQFNTVENVAEQLKPILNTYHSLGFTAITDVGDTFSTTTAAIARLNDQGKLKVYYQRGYFYDAAKSTEQNIASLKALREKYNRGNLSMNLYKLFMDGTIEMDSGAMFKPYPNGNIVEPFLSQKQINDNVAAALKAGFSVHVHAIGDKAQQSILDAFEASKNINPHLARVIAHNQVFEPQGVQKFAAMKDNLFLQTTPNWTVLNEKDETKTKIGSDAYNHQYLLGQVVREGVAVTFGSDYPANTFDAVNPFSQMYHAIKRGQPNAGYLPPTDAAMTLDQSLRAYTINGAKQLGISDITGSLEKGKNADFIIVDTDIGSVDLEKLKNTNVLATYFKGEKVY | failed
2 | MSLSQDGLLGEVLSEGVLTLTLGRAPAHPLSRAMIAALHDALRRAMGDDHVHVLVIHGPGRIFCAGHDLKEIGRHRADPDEGRAFVTDLFEACSALMLDLAHCPKPTIALVEGIATAAGLQLMAACDLAYASPAARFCLPGVQNGGFCTTPAVAVSRVIGRRAVTEMALTGATYDADWALAAGLINRILPEAALATHVADLAGALAARNQAPLRRGLETLNRHLELPLEQAYALATPVMVEHFMDPGRRHLDWIDEGHHHHHH | not failed
3 | MRTPRFLRAVHANRTTARDVSSLRLPLQPRRDRARPGAMRTGLQGSVGIQCQLQRQHCQRQVASHAHYCADRGAVHCDGIACLDRAIGFQQLQGALGLAQEMRARHDLLTRVAAFFDAVGLQTVECQLLWRPLFALALDQASEPQLQIRAPPLRIYARRFDRRCQCFFGVQQQGARQRSAAQIQHDTLRSEIGLRGARAFRCCEAAKGKQRGSADFQLAAEDETAELGGDLGRVAVRQQHQQVCIVLTQKCEDGNHAPLRRQPRIPLPLPNRQRLYVIGKLGMRERHCIRADQSDVLDILQGAKTLRNKIQVVSHGRGGLKSPSCESTMIGHPTPTPAQDSETQPSSQEHIPEKKPLPKEIGGRDGPEPTRYGDWEKNGRCIDF | failed
4 | MYIPKYFKVTNAEEIWNFVQENSFGTVVTTEQGKPIATHLPLGFNKKDDHYYITGHFAYGNPQWRTFEACEDVLVMFQGPHAYISSSWYSRENVPTWNYQAVHMYGKASMLEKDELAEELTIMLEQKTPTQAFSVLWDKLSPKLLESELKGIVGFKIKVEDIQAAYKLSQNRNETDYMNVIEQLQNEENPNAKQMAELMEDKLKKQI | not failed
5 | MKFEGIYTPAITPLSADGSIDTQAFAEVLEFLVESKVHGIVIGGSTGEYYAHTAEERLALAAHASEVIAGRLPLVVGTGAIRTEDSLAYAEAARAIGADAILVGSPPYALPTSREIAEHVLAVDRAAGLPIMLYNYPARMGVEMDEAFFAAVAGCRNIVAIKESSGSTAQLHRLACRHPRIALSCGWDDQALEFFAWGARSWVCAGSNFIPGEHLALYQACVVENDFAKGRRIMAAMMPLMDFLESGHFVQSIKHGCELAGLRAGGVRAPLKALDEAGKAALAEIVARLKGEVAR | failed
6 | MDYNKTAKDILKLLGGEKNVMSAAHCATRLRLVLKNEKEARTKEIEKLDGVKGVFSSSGQYQIIIGQGSVNKVYKAFVEGTGISESSLSDTKKAAMKNM | not failed
7 | MSGLLSIFDLSDERGVLRTSIAVTFVISFLGIGFGLFSGSFSIVFDGVYSLIDAGMSLLSLIVVNLITSYAVADHLSRKLRERFSFGLWHLEPMVLGLNGILLISAALYALVTAIGSLLSGGRDLEFGSALIYAAVTVIACAGIAAVEWRANRKIGSEFLRLDVRGWIMSAGISAALLIAFMIGLAVQGTSWQWISPYIDPAVLAAVCVLIIPLPVSTVRQALADIFLVTPVDLKKHLDTVAAAFVAKHGFVSYRAYVARVGRSKEIELYFIVPADAPARTIGEWDMLRDEIGDLVGDDGPNRWLTVVFTGDPEWAE | failed
8 | MKVTDVRLRKIQTDGRMKALVSITLDEAFVIHDLRVIEGNSGLFVAMPSKRTPDGEFRDIAHPINSDMRQEIQDAVMKVYDETD | not failed
9 | MAAGFSSKTTRDSPHLSEIRVVLLGNNDCDRRRVVRSVLGDLTGESVGQCTVYDGEESRRRIRVVDAPGWNSNTPQSKLRESIERSAMLCAPGPHALLLVLPVRRNEDMSAGDIKSGMKLVEMLSERAWRHTIVVFACDEGTGGFSCSQKAKIVLEKCKGRGFYLQRQGGIAQLFTQIEDLVRDNGEDDVFLPQAYHELFRRKTEGLLHRRGNLRKKPVHLSKSEAGALGVEPFSVIVIAVLAAVLVSLSFGAEYGVFGGCAGLLLGSILPF | failed
10 | MLLSMLRFEWRYYLRQPSFYVVSFLLFLMSFLSVASNNIQIGSGGEVMKNSPFSISQTLLIMGLISMFAVVNFVGSTAIRNHQHLMEELVYSKPLSPFAYQFGRFLGSFMVVLAVFAFVPIGLMLGSFMPWVDASRFGPFALSHYVIPYLQLSVPSLLLISCLFYAMASRFRSLMALYLTAVAMLVLYTLTGEMASQPQYRTIAALLDPFALRTFAEVTRYWTISEKNHQLLELSGLVLQNRALWLVIAGVLLAMSGIFSQPTLTKKRDKKSSKVEKIPDLVPLTALAMATLPNGRLQFWTRVKFEVRQVLLTAPFVVLGALTVFNLVGPMFDDFGWYGTSNWPLTQDMVDNIAGATGLLMVIVLIYYSAEIVWRERSSGMGDIVDSVPVSNLSFWASKLVAVLIVMTLLYMLAMGTTIVFQLIKGQSNLEISQYLIRLGFYYLLPLLMTSVLAFFLQVLSPNKYAGMGLFVAYYLTTFVMANWGFGHSLYNFGQSPSVSYSDMNGYGWGLLSHSLYMIYWGAFSVMLFVLGYGLYHRGPQQSLKTRLGLLGYQLGHNGKVIIAAALVIFVGSGSYLFYQTKVVNHYLTQEETTDLQADYEKTFKQYQGMPILVTTRVNANVDIFPEQRKIAAKVMFEWQNKSDKPIEKMLVQFPEHTQAETVKINIPNTHLGEFDRRYRNAWLTFSTPVQPGQLVVGNIELVRESTGVAESGFDLSVVENGTFINNFELLPLFGYQDGYELMDRHERQKRGLAEKNRANKLEDSRFYQQNFFGVDGDFIQFEATISTSMDQIALAPGYLQKQWQQDDRQYFHYLMDSPMVNFYAIISGRYQVEKIEHHGVAVEVYYHADHSWNVTRMVESVKDSIDYYTAAFGPYQHKQMRIMEFPGYRSFAQSFANTVPYSERIGFITDLRNEDNIDPVYYVTAHEVAHQWWGHQVGAADVQGSAVISESLSQYSALMVLEHKYGDKMIRKFLKYELDRYLRGRSAESIKEQPLLRSENQQYIHYQKGSVVMMAIKDVLGEAKLNANLKAFLTRYQYRNDPFPTTLDLVSYLKQGTDEVQSRFIDESFNDITLYDLRLTNAVAKTLPDGKTQLELTIYASRKVATGKGEEAEQPLDMSIDIGAFSADPDKLKDEKQILLLEKHHLVSGENKLTITLAEKPSYVGVDPFVKLIDRDARDNIFKL | failed
11 | MIKRILTVLLLFPTLVCAQINTERVMTIARNALYFEDYVLSIQYFNQVINAKPYLYEPYFFRALAKVNLEDYQGAEADCDEAIKRNPFVVGAYQVRGLARIRQSKFDGAIEDYQKALHYDPENITLWHNLTLSHIQKKDYDAAKEDLESLLKVSPRYTRAYLMRGEVSLQQKDTVAALKDFNTALELDKYDPDAWSARAIVRLQQSNYAEAESDLDRAIHLSAKNAGNYINRALARFHQNNLRGAMSDYDLALDIDPNNFIGHYNRGLLRARVGDDNRAIEDFDFVIQMEPDNMMAIFNRALLRAQTGDYRGAIKDYTTVINQYPNFLAGYYHRAEARKKIGDKKGAEQDDFKLLKAQLDKQNGGTNKDVAQNQNKDKENQSGENGDESEEGKTRKKSDKNMNNYRKIVIADDSEADQRYTSDYRGRVQDKNVNIKLEPMFALTYYEKSSEVKRSVNFHKFIEDLNLSNVLPKRIRITNMEAPLTEEQVKFHFALIDAHTSAIVDDDKSAPKRFARAIDFYLVQDFSSAVADLTQAILLDGDFFPAYFMRALIRCKQLEYQKAEQAAEADMPSGAAVKEVSAVDYEVVRKDLDKVITLAPDFVYAYYNRANVAAMLKDYRAAIVDYDKAIQLSPDFADAYFNRGLTHIFLGNNKAGISDLSKAGELGVVSAYNVIKRFTDQTE | failed
12 | MNFSTSFWQGFRALVPLWLGTVPFALAYAVTARAAGLSVGDTCLMSLTTFAGASQFAAAGLFGAHAGGLSIVLTTFLLNARHLLYGLSLARELRLTLPQRVVAAQFLTDEAYGVAVVSGARLPGGLTFAFLLGAELSLYLSWNVSTLLGALAGSVLPPPEQLGVGVVFPLAFLGLLVPLVVDRLSLLVALAAGLGGWALSRVLPGGLVILLAGVGGALLGAALLTRREQRAGVRA | failed
13 | MEMRFFVLGAGSWGTVFAQMLHENGEEVILWARRKEIVDLINVSHTSPYVEESKITVRATNDLEEIKKEDILVIAIPVQYIREHLLRLPVKPSMVLNLSKGIEIKTGKRVSEIVEEILGCPYAVLSGPSHAEEVAKKLPTAVTLAGENSKELQKRISTEYFRVYTCEDVVGVEIAGALKNVIAIAAGILDGFGGWDNAKAALETRGIYEIARFGMFFGADQKTFMGLAGIGDLMVTCNSRYSRNRRFGELIARGFNPLKLLESSNQVVEGAFTVKAVMKIAKENKIDMPISEEVYRVVYEGKPPLQSMRDLMRRSLKDEFWASVVDSSL | not failed
14 | MEHASKRDTMAPSGTIPGNGGVNAPSAARVDWVDYAKGICIVMVVMMHSVLGVELAAGETGFMHVAVAFAKPFRMPDFFLISGLFLSLVIDRDWRTYLDRKVVHFAYFYVVWVTIQFGFKAPAFAAETSWREVGLLYLESFIEPFGTLWFIYLLPVFFVVTKLTRRVPPLAIWLIAAALETARIATGWTAIDEFCARFVYFYSGYLFAPYVFALSDRARSHPGPALAALATWALINAGLVAYGASEWKVVSLVLGFAGACAIITMGTLLARAQWLNFFRFCGEHSIVIYLAFFLPMAATRTLLLRTGVIPDIGTVSLIVTIAGVLGSLAIWQAALRLGADFLFERPDAFWIAPKKAGVRLQAAE | failed
15 | MTLSRSSADDSTNNANRSYSAVAGTDNKRKRDEDSSDYVGVAESLEMLKKQEIDADHMAASAQQTLISWRSGENSRSLSSSGECSSSNRPESTRLQIFVRMMSGGKTIVIHAEKYDTVEKLHQRIEWKTKIPALEQRVIYKGKQLQRENSLTYYSIEQDASLQLVARMQSTEHPVAWQTIDDIMYTISRMYKGENLQSNINEKIVTFFAMIPVESDESIAKYLNIFSNSSVPAALVMLYASSLERNKSCAKSSVKLFLSNCVALPKNQKNYCLPIVLEFCKLLRKVCPDQKLYVTCRNTLGSMLETFDNPHGVYNDQYETFGVEIFPFFTELTGLLLNELAQNSGPSFCDFQKVSSFWQQLRKVIELKVAFPIPIVLPMQSTALEAEIRHLHRLFGSLLTTMDLCMCRVESSLADKEVGNSETMSSSWSQYLSILKIINSMSNIYQGAKGQLAVMLNKNKVSFSALVVKFAKRGDDHQWIFEYKEATNFEARRHLAMLLFPDVKEDFEEMHEMLIDRSNLLSESFEYIVGASPEALHGGLFMEFKNEEATGPGVLREWFYLVCQEIFNPKNTLFLRSADDFRRFSPNPASKVDPLHPDFFEFTGRVIALALMHKVQVGVLFDRVFFLQLAGLKISLEDIKDTDRIMYNSCKQILEMDPEFFDSNAGLGLTFVLETEELGKRDTIELCPDGKLKAVNSKNRKQYVDLLIERRFATPILEQVKQFSRGFTDMLSHSVPPRSFFKRLYLEDLDGMLRGGENPISIDDWKAHTEYNGFKETDRQIDWFWKILKKMTEEEQRSILFFWTSNKFVPVEGFRGLSSKLYIYRLYEANDRLPLSHTCFYRLCIPRYPTITLMEQRLRLIAQDHVSSSFGKW | failed
16 | PQPKIGILLANLGTPDNYDYWSMRRYLNEFLSDKRVIDYPAWKWQPLLQILILSKRPFSSGANYKLIWNHDKGESPLMTITKDQTAAIAAEIRSLYGNRVMVDFCMRYGNPSTESRVRAMVEAGCEKILFFPLYPHYAGATSATANDEFFRAMMKEKRQPAVRTVPEYYDNPLYIDALAQSVERAYAQLDHRPDVLVASYHGMPKRYLMAGD | failed
